# Laboratory results taken from patent US20110229423A1 (Galderma Research & Development, priority 2008, published 2011).
# Ends that are not written are not given here.
# Key:
# [1] = tested on: VPAC1R mRNA; assay: Semiquantitative RT-PCR of VPAC1R mRNA in HDMEC; type: cell-based, human; settings: 6 h
# Method: To verify our immunohistochemical observation on the mRNA level that the PACAP-induced effects in human dermal endothelial cells are mediated via VPAC1R, we performed RT PCR analysis for VPAC1R, VPAC2R and PAC1R in HDMEC (FIG. 11. Semiquantitative RT-PCR and gel electrophoresis of VPAC1R (FIG. 11A), PAC1R (FIG. 11B) and β-actin (FIG. 11C) in HDMEC. M=marker; lane 1: unstimulated HDMEC; lane 2: TNFα stimulated (4 ng/ml) HDMEC; lane 3 (11A): LPS-stimulated (10 ng/ml) HDMEC; lane 3 (11 B and 11C): HNK cells as positive control; lane 4: RT-control (negative control) In non-stimulated HDMEC cells, mRNA message was only found for PACAP and VPAC1R (FIG. 11A), but not PAC1R (FIG. 11B;) and VPAC2R (data not shown). Note that the PAC1R signal is positive in HNK cells that were used as a positive control. To examine whether proinflammatory mediators such as TNFα or LPS are capable of regulating VPAC1R mRNA expression, HDMEC were harvested without or 6 h after stimulation with TNFα (concentration: 4 ng/ml) or LPS (concentration: 10 ng/ml), respectively, and semiquantitative RT PCR was performed (FIG. 11). To consider the relative mRNA amount in the samples amplification of the housekeeping gene β-actin served as an internal control (FIG. 11C), TNFα as well as LPS induced upregulation of VPAC1R mRNA as compared to the unstimulated controls (FIG. 11). […]
# [2] = tested on: human skin; assay: Skin temperature (ST) in human volunteers before and after intravenous peptide application; type: in vivo
# Method: First, the skin temperature (ST) was measured in different human body regions before and after continuous intravenous application of 100 pmol/kg b.w./h PACAP1-27. Under basal conditions a ST of 33.51±0.25° C. was measured at 0 min. Differences of ST [ΔT(° C.)] were measured after 5, 15, 30, 45, 60 min (FIG. 1: Changes in skin temperature [ΔT(° C.)] as compared to basal (0=33.51±0.25° C.) before and after continuous infusion of 100 pmol/kg b.w./h PACAP1-27 Mean±SEM, *=p<0.05 (n=10)). […] This increase persisted even after 30 min although less dramatic (+1.8° C.±0.26). […] This PACAP-induced effect in human skin was dose-dependent (FIG. 2: Changes in skin temperature [ΔT(° C.)] as compared to basal after continuous infusion of 7.5, 15, or 30 pmol/kg b.w./h PACAP1-27. Mean±SEM, *=p<0.05 (n=9). Mean time until first flush symptoms occurred was 46.03±5.30 min.). […] Next, ST was measured in different body regions before and after a bolus injection of […] PACAP1-27. […] Changes in skin temperature [ΔT(° C.)] as compared to basal ([…]=33.51±0.25° C.) under different conditions of continuous infusion and concentrations (◯=1 μg/kg b.w./h PACAP1-27; o=100 pmol/kg b.w./h). Mean±SEM, *=p<0.05 (n=10)). […] Mean±SEM, *=p<0.05 (n=7)).
# [3] = tested on: human skin; assay: Flush phenomenon (erythema, edema) in volunteers after intravenous PACAP1-27; type: in vivo
# Method: B) Flush phenomenon in a probationer after intravenous application of PACAP1-27. Note cutaneous erythema and facial as well as a marked periorbital edema 30 min after application). […] The approximate duration when first signs of a “flush” occurred were 46.03±5.3 min with 100 pmol/kg b.w./h PACAP1-27. The erythema persisted approximately for 6 h.
# [4] = target: T1, VPAC1R (Homo sapiens, UniProt P32241); assay: In vitro measurement of cAMP activation in HDMEC; type: cell-based
# T1 construct: To confirm that HDMEC express functional VPAC1R, we kept HDMEC in FCS/nutrient deficient medium for 24 h; endogenous in cells; host or cells: HDMEC (human dermal microvascular endothelial cells)
# T1 sequence (P32241 31-457): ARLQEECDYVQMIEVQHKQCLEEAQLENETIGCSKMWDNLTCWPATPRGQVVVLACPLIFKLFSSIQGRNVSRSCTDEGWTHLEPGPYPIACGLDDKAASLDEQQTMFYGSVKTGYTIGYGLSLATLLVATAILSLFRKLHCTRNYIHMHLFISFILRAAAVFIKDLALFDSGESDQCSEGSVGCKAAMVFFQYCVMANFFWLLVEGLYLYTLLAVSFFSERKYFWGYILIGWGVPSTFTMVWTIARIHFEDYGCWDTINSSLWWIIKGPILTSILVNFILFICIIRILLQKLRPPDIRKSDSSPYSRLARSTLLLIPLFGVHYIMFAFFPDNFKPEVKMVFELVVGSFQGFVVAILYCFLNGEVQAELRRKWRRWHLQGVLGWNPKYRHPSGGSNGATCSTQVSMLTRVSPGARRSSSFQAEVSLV
# Method: For example, Human Dermal Microvascular Endothelial cells (HDMEC) can be grown in endothelial cell growth medium. Lyophilized PACAP1-38 can be diluted in the appropriate volume of HDMEC assay medium immediately prior to use. IBMX (3-Isobutyl-1-Methylxanthin) can be added to the medium as a phosphodiesterase inhibitor in order to measure all the intracellular built cAMP after receptor stimulation without the intrinsic phosphdiesterase cleaving some of it. After 24 h cells can be harvested and extracted with 65% ethanol in PBS which can be lyophilized and the cAMP concentration can be examined using a cAMP EIA-direct assay (Amersham Pharmacia Biotech).
# Pretreatment with antagonist was 3 min before agonist stimulation. […] Experiments were performed at least three times). IBMX (3-Isobutyl-1-Methylxanthin; 4 mM) was added to the medium as a phosphodiesterase inhibitor in order to measure all the intracellular built cAMP after receptor stimulation without the intrinsic phosphodiesterase cleaving some of it.
# [5] = tested on: HDMEC; assay: ELISA for NO release by HDMEC; type: cell-based, human
# From the text: In an alternative approach, the determination of the activity of PACAP signalling pathway can be carried out using an Enzyme-Linked Immunosorbent Assay (ELISA) for nitric oxide (NO) production in HDMEC. To study cytokine release by HDMEC after PACAP stimulation, cells can be stimulated as described above and supernatants can be collected and frozen until use for ELISA assays. For the detection of NO release, NO-ELISA kits, for example from BioSource Int. can be used.
# PACAP-induced release of NO in HDMEC. After finding that HDMEC express functional VPAC1R and that VPAC1R is the crucial receptor in human skin epithelium on the protein level, we examined whether PACAP is capable of releasing NO from HDMEC at similar concentrations. Therefore, we performed specific ELISAs with supernatants collected at time-points between […] (FIG. 12). Indeed, PACAP (10^−9 M) induced the release of NO (582%+/−25) by HDMEC as compared to control with a maximal effect at 15 min.
# [6] = Systemic parameters: pulse and blood pressure RR syst./diast. during PACAP infusion; type: in vivo, human
# From the text: To test whether these prominent effects in human skin (erythema, edema) and difference in skin temperature [ΔT(° C.)] were due to a local vascular effect and not due to a secondary systemic effect we measured systemic parameters such as pulse (B/min) and blood pressure RR syst./diast. (mm Hg). […] Thus, PACAP-induced changes are most likely due to a local effect in cutaneous vasculature.
# [7] = 30 min, change from 7.5 to 15 pmol/kg/h
# [8] = 60 min, change from 15 to 30 pmol/kg/h
substance,measurement,setting,value
LPS,VPAC1R mRNA compared to unstimulated controls,[1]; 10 ng/ml,upregulation
PACAP1-27,"increase of skin temperature, bolus versus continuous infusion",[2]; bolus 1 μmol/kg b.w./h compared with continuous 100 pmol/kg b.w./h,significantly higher increase of ST
same,maximum increase of skin temperature ΔT vs basal,"[2]; bolus injection 1 μmol/kg b.w./h, maximum after 30 min, n=8",2.7 °C
same,skin temperature course after bolus,"[2]; bolus injection, after 60 min",slight decrease of ST
same,skin temperature compared to basal,"[2]; bolus injection, after 120 min",still elevated
same,increase of skin temperature ΔT vs basal,"[2]; continuous i.v. 100 pmol/kg b.w./h, after 5 min, n=10, mean±SEM",1.2 °C
same,increase of skin temperature ΔT vs basal,"[2]; continuous i.v. 100 pmol/kg b.w./h, after 30 min, n=10, mean±SEM",1.8 °C
same,further increase of skin temperature compared to 30 min,"[2]; continuous i.v. 100 pmol/kg b.w./h, between 30 and 60 min",no significant increase of ST
same,increase of skin temperature ΔT vs basal,"[2]; i.v. infusion 7.5 pmol/kg b.w./h over 30 min, n=9",1.25 °C
same,increase of skin temperature ΔT vs basal,"[2]; i.v. infusion 15 pmol/kg b.w./h, n=9",2.1 °C
same,increase of skin temperature ΔT vs basal,"[2]; i.v. infusion 30 pmol/kg b.w./h, n=9",2.4 °C
same,skin temperature after stop of infusion,[2]; immediately after infusion of 30 pmol/kg b.w./h was stopped,slowly decreased
same,approximate duration when first signs of a flush occurred,[3]; 100 pmol/kg b.w./h,46.03 ± 5.3 min
same,mean time until first flush symptoms occurred,"[3]; FIG. 2: continuous infusion of 7.5, 15, or 30 pmol/kg b.w./h, n=9",46.03 ± 5.30 min
same,persistence of erythema,[3]; after i.v. application,~6 h
same,erythema (flushing) and edema compared to control injections,"[3]; all participants, bolus and continuous infusion",significant development of erythema (flushing) and edema
same,healthy volunteers in whom the effect was dominant in the face and upper trunk,[3]; i.v. application,nine out of ten
"PACAP6-27 (FTDSYSRYRKQMAVKKYLAAVL; ends and bridges not checked; UniProt P18509 137-158, looked up, fragment)",effect on agonist-induced cAMP activation,"[4]; 10^-7 M (100× the agonist), pretreatment 3 min before agonist",cut in half
same,PACAP-induced NO release after antagonist preincubation (value in brackets),[5]; preincubation before PACAP,79+/−22
same,effect of preincubation on PACAP-induced NO release,[5]; preincubation before PACAP,slightly enhanced
same,NO release when TNFa was incubated with the antagonist,[5]; with TNFa,significantly lower
Pituitary adenylate cyclase activating polypeptide [PACAP],cAMP activation compared to the negative control,"[4]; 10^−9 M, IBMX 4 mM",more than 4 fold
same,activation of VPAC1R in HDMEC (cAMP),[4]; FIG. 10,dose-dependent activation
same,release of NO as compared to control,[5]; 10^−9 M,582%
same,time of maximal effect on NO release,[5]; 10^−9 M,15 min
same,"NO release on incubation together with TNFα, versus TNFα alone",[5]; with TNFα,additive effect
same,R diastol.,"[6]; 5 min, infusion 7.5 pmol/kg/h",72 ± 4 mmHg
same,R systol.,"[6]; 5 min, infusion 7.5 pmol/kg/h",107 ± 4 mmHg
same,pulse,"[6]; 5 min, infusion 7.5 pmol/kg/h",64 ± 3 B/min
same,R diastol.,"[6]; 15 min, infusion 7.5 pmol/kg/h",75 ± 3 mmHg
same,R systol.,"[6]; 15 min, infusion 7.5 pmol/kg/h",109 ± 4 mmHg
same,pulse,"[6]; 15 min, infusion 7.5 pmol/kg/h",66 ± 4 B/min
same,R diastol.,[6]; [7],75 ± 3 mmHg
same,R systol.,[6]; [7],111 ± 5 mmHg
same,pulse,[6]; [7],68 ± 3 B/min
same,R diastol.,"[6]; 35 min, infusion 15 pmol/kg/h",74 ± 4 mmHg
same,R systol.,"[6]; 35 min, infusion 15 pmol/kg/h",111 ± 5 mmHg
same,pulse,"[6]; 35 min, infusion 15 pmol/kg/h",69 ± 3 B/min
same,R diastol.,"[6]; 45 min, infusion 15 pmol/kg/h",74 ± 4 mmHg
same,R systol.,"[6]; 45 min, infusion 15 pmol/kg/h",111 ± 5 mmHg
same,pulse,"[6]; 45 min, infusion 15 pmol/kg/h",73 ± 4 B/min
same,R diastol.,[6]; [8],74 ± 3 mmHg
same,R systol.,[6]; [8],111 ± 5 mmHg
same,pulse,[6]; [8],69 ± 3 B/min
same,R diastol.,"[6]; 65 min, infusion 30 pmol/kg/h",74 ± 3 mmHg
same,R systol.,"[6]; 65 min, infusion 30 pmol/kg/h",109 ± 5 mmHg
same,pulse,"[6]; 65 min, infusion 30 pmol/kg/h",71 ± 3 B/min
same,R diastol.,"[6]; 75 min, infusion 30 pmol/kg/h",74 ± 3 mmHg
same,R systol.,"[6]; 75 min, infusion 30 pmol/kg/h",110 ± 5 mmHg
same,pulse,"[6]; 75 min, infusion 30 pmol/kg/h",72 ± 2 B/min
same,R diastol.,[6]; 90 min (end of infusion),72 ± 4 mmHg
same,R systol.,[6]; 90 min (end of infusion),109 ± 5 mmHg
same,pulse,[6]; 90 min (end of infusion),69 ± 3 B/min
same,R diastol.,"[6]; 100 min, after end of infusion",73 ± 4 mmHg
same,R systol.,"[6]; 100 min, after end of infusion",109 ± 5 mmHg
same,pulse,"[6]; 100 min, after end of infusion",66 ± 4 B/min
same,R diastol.,"[6]; 110 min, after end of infusion",72 ± 4 mmHg
same,R systol.,"[6]; 110 min, after end of infusion",109 ± 4 mmHg
same,pulse,"[6]; 110 min, after end of infusion",68 ± 4 B/min
same,R diastol.,"[6]; 120 min, after end of infusion",74 ± 3 mmHg
same,R systol.,"[6]; 120 min, after end of infusion",112 ± 4 mmHg
same,pulse,"[6]; 120 min, after end of infusion",71 ± 4 B/min
same,differences in RR syst./diast. or pulse,[6]; during and after infusion,No measurable differences
TNFα,VPAC1R mRNA compared to unstimulated controls,[1]; 4 ng/ml,upregulation
"vasoactive intestinal peptide (HSDAVFTDNYTRLRKQMAVKKYLNSILN; ends and bridges not checked; UniProt P01282 125-152, looked up) [VIP1-28]",increase of skin temperature vs basal,"[2]; i.v. infusion 20 pmol/kg b.w./h, n=7",did not result in a significant increase of ST
same,increase of skin temperature ΔT vs basal,"[2]; i.v. infusion 100 pmol/kg b.w./h, maximum after 60 min, n=7",1.36 °C
